# Test: soluble on expression in E. coli; label from the status in PepcDB or PDB records
row,Sequence,soluble on expression in E. coli
1,MVAPSFPLFNLPQKNLKDVFCNMSVIQQTCISLISEKTRNLVREFHIFKQLQVCLDFIFLPDYHFYLKGSAKFIFIPHNRKFIARSSSGEHSNYSVPQFDAKSWLKHLIYIFNVTEIHSLRSRFFDWDLREPRLKMPKECLKNLKILNLSIGFTNKISLVVELYSAFQHIKKFSLRQYSHKPLDSTLLLELRHLLSKTNQQLCLNINLPLNELLLTSCSSIDIHRTQLTDKDINVFLKHWFAGLKPELEHFRVRKDGPAFNQKTILKGIPHEFASIGRKFKLFEMDSQVGGIDIDLGQDIKATLVFNHKPGIADFSVAVHNSKYFFC,not soluble
2,MLTPTPDSSPRSTSSPSQSKNGSFTPRTANILKPLMSPPSREEIMATLLDHD,soluble
3,MGSDKIHHHHHHMQPSNSWVCLSALEKQVVAATASLDNRGLAYADGFFTTMGVINGQILWAEYHHQRLISHAKALQLDLDSWSLLSTLQVHAQQHRQGMLKLIITRAAQDIRGYGYTPSECGSACESWLKSLAMTVSTAEQLSLNDECSIPVQPVSTAVCLSSQIACLPPSIAGLKTLNRLDNVLASAELQGIKTRVLASNGEGDISEGLLRDMTGRWVEGTMSNVFYQLSDSRLVDSPSSEMINIPNNKSNTNYLTQGQWYTPSMAQSGVAGVMRQVIIDELSTTKYPVVVRSLQDKDLPQLQQLFFCNALRGIMPMASLTLLSGEMVGF,not soluble
4,MSEKTMRVQDYPLATRCPEHILTPTGKPLTDITLEKVLSGEVGPQDVRISRQTLEYQAQIAEQMQRHAVARNFRRAAELIAIPDERILAIYNALRPFRSSQAELLAIADELEHTWHATVNAAFVRESAEVYQQRHKLRKGS,soluble
5,PFLELDTNLPANRVPAGLEKRLCAAAASILGKPADRVNVTVRPGLAMALSGSTEPCAQLSISSIGVVGTAEDNRSHSAHFFEFLTKELALGQDRILIRFFPLESWQIGKIGTVMTFL,soluble
6,MAHHHHHHMKQECNVCYFNLPDPESTLGPYDNELNYFTWGPGFEYEPEPQRKPLSIEESFENSEESEESVADIQQLEEKVDESDVRIYFNEKSSGGKISIDNASYNARKLGLAPSSIDEKKIKELYGDNLTYEQYLEYLSICVHDKDNVEELIKMFAHFDNNCTGYLTKSQMKNILTTWGDALTDQEAIDALNAFSSEDNIDYKLFCEDILQ,soluble
7,MGSDKIHHHHHHMSSGTENDQFYSFDESDSSSIELYESHNTSEFTIHGLVFPKLISVTSQDSEFDINEDEDGVDTIYEGMLDAPLTKNNKRILCEGSVPNLSYECLTTKGIFERMLQRVDHLQPIFAIPSADILILLQHYDWNEERLLEVWTEKMDELLVELGLSTTANIKKDNDYNSHFREVEFKNDFTCIICCDKKDTETFALECGHEYCINCYRHYIKDKLHEGNIITCMDCSLALKNEDIDKVMGHPSSSKLMDSSIKSFVQKHNRNYKWCPFADCKSIVHLRDTSSLPEYTRLHYSPFVKCNSFHRFCFNCGFEVHSPADCKITTAWVKKARKESEILNWVLSHTKECPKCSVNIEKNGGCNHMVCSSCKYEFCWICEGPWAPHGKNFFQCTMYKNNEDNKSKNPQDANKTLKKYTFYYRLFNEHEVSAKLDWNLGQTLGTKVHALQERIGISWIDGQFLSESLKVLNEGRTVLKWSFAVAYYSDASHNLTKIFVDNQMLLANAVESLSELLQIKTPEVIMKRRPEFYNKAGYVENRTTALMECGRELLCKGICKAAE,not soluble
8,MPNTPHTMNLYIKNIAQLVTCQGSEAKHGREAMGQIHTIEGPAAVVIRDGIIAFAGRMADVAPSMTEGCRELDATGRCVLPGFVDSHTHLVFGGYREDEFQWRLAGDSYMSIMERGGGIASTMRATRSESEDELKASARRHLSNMMKMGVTTVEAKSGYGMNLETELKQLRVVRDLQDEQPLDLYSTFMGAHDTAPEYKGRPTEFIEYLCREVLPEVVRQNLAECCDIFTEKGVFDHEQTRRMLTAAKEAGLSVKMHADEIVPFGGAELAAELGCLSADHLLRISDAGIKALAESNTVATLLPCTAFSLRADYAPARKMIDAGCAVALGSDLNPGSCFSASVPLMFALATLYMGMTVEEAITALTINGAAAIGRADTIGSIEPGKKGDLVVLQYPSYKFLSYHFGMNLVEHTVKGGRVVYTNS,not soluble
9,HDKVVVLEAKNGNVTFDHKKHAGVKGECKACHETEAGGKIAGMGKDWAHKTCTGCHKEMGKGPTKCGECHKK,soluble
10,MGMKFRVVCRKLYDYVRYDLKEIAFPSSLPDPPHIKKRPKLTLKDKWCILKEATRLYGASWVRDIGPDLRPNDYKKVKEEPDIKTEEGSSEPTTVEDLLGALKGGAEKAKPALQRMYMARASNYTDALKNYVESYKEGLKEHLEEEAMGKGHRQGNDATKPPQSPSS,soluble
11,SLEPIGRSLQGVTGRPDFQKRLEQMKEKVMKDQDVQAFLKENEEVIDQKMIEKSLNKLYEYIEQSKNCSYCSEDENCNNLLEGYHPKLVVNGRSIDIEYYECPVKRKLDQQKKQQSLMKSMYIQQDLLGATFQQVDISDPSRLAMFQHVTDFLKSYNETGKGKGLYLYGKFGVGKTFMLAAIANELAEKEYSSMIVYVPEFVRELKNSLQDQTLEEKLNMVKTTPVLMLDDIGAESMTSWVRDEVIGTVLQHRMSQQLPTFFSSNFSPDELKHHFTYSQRGEKEEVKAARLMERILYLAAPIRLDGENRRHP,soluble
12,EETLLNTKLETADLKWVTFPQVDGQWEELSGLDEEQHSVRTYEVCDVQRAPGQAHWLRTGWVPRRGAVHVYATLRFTMLECLSLPRAGRSCKETFTVFYYESDADTATALTPAWMENPYIKVDTVAAEHLTRKRPGAEATGKVNVKTLRLGPLSKAGFYLAFQDQGACMALLSLHLFYKK,soluble
13,MAHHHHHHSLIKSMTGFSRVEKVSGPYQFRVEMKSLNSKGLNIINQLPGYLSMKEIELNNLVQEYVSRGKVQTRVQVKFLEPPKVLEIDKNVVRAYYSMLDEIVGELSLPEPVKLSDLLNFREVFRIELSDEEIENIWNHLVPILREALEKLVEERKKEGQKIGADLKRILEDLSSRVEEIEKISDQLPALYREKIKEEVEKILPQDVSVKEDILENHVAFMATKADIREEITRLRSHIKRALELIESDEPVGMNLDFLGQEMLRELNTILSKSISGEITSLALEGKVLVSQFREQIQNVEEG,soluble
14,MRIVAPVMPRHFDEAQAIDISKYEDVNLIEWRADFLPKDEIVAVAPAIFEKFAGKEIIFTLRTVQEGGNITLSSQEYVDIIKEINAIYNPDYIDFEYFTHKSVFQEMLDFPNLILSYHNFEETPENLMEAFSEMTKLAPRVVKIAVMPQSEQDVLDLMNYTRGFKTLNPEQEFATISMGKLGRLSRFAGDVIGSSWTYVSLDHVSGPGQVTLNDMKRIIEVLEMDISN,soluble
15,TGQIGTKGTVLFCNPTETEQYLKCNVEMFVQGASSANDFKKGYTFDLYNSNGEELGVKFGDMISSSSFHLKAFYRDPTHTRDQAGYRFWKSLAETLDYPYCKINNSVYAQSTTRSDKAEFTFDAKYYPHGFPVEIYLNDTFHGLYTLRLKKTRENYTLNNADLNHIFLDNAEYRARLNTSFNYAQWEIKSPKMKGYSDQGPIPATFPTVQAAIDNLFNFTKGLSANYANHATVLNLPHWVLFYILAELTGHWDIDGNNYNIFTWDGVHWSILPYDMDLTLNWYRNSGATQTGFLINVDIWQTFRTVYSNEIKAMWTKFRNEKSLTTEKVVNTYRNVAKDIPREVYVADKAKWGLATDFTGNDYPNIEQIYRYITARIAYL,not soluble
16,MGSDKIHHHHHHMVGMLERTIAGLQRNNMAGYFVHNRQELMALLSGLMEKGQTVGCGDSVTLEELGVFDFLRKGDYIFYDKYVPGLTSEDKRRLYIQNFAADTFITGTNAVTTDGKLFNIDGNGSRVAPMIYGPRQVIVVVGTNKITEDVESAIQRVRQIAAPMDAKRLKKETPCTKLNRCVDCRHPQRICNDFVLITGQFVKDRIKVIIIDMEIGY,not soluble
17,MCLDKMTDIRVRGYKSISFWQEEGIGLIVIRSDSHGRFDLNTLGEITAAIGIAAMDGSVRAVALTGMNNIFGRQLVIGQLSNNTVYNVMQSSSSLISMIYTFEKPIFSILNGDAIDEGYEIALLADRIISADDIKVGFSRDYEFKIGGSFTSLRMTKTDISGPAEGINVDRVVKHESLLEDAKNIIKETADINFPMRRRQRYRYISELINAEKINFYEHYLARS,not soluble
18,MSLKEVAAKTGIGTLPEWNLGDLYMGIDAPEIAHDLAKMDAECVAFETDYKGKLAEHVARDDGGEWLAAAVRRYEAIDDLAGRLGSFAGLAHAGDSVDPAISKFYGDISERLTAASTHLLFFPLELNRIDDAVIERAMETPALGHYRPWIEDLRKDKPYQLEDRVEQLFHEKSQTGYSAWNRLFDQTIAGLRFQVGGKELAIEPTLNFLQDRDGAKRKAAAEALAKTFKANERTFALITNTLAKDKDISDRWRGFQDVADSRHLNNRVEREVVDALVASVRAAYPKLSHRYYQLKARWFKKKKLAHWDRNAPLPFAANATIAWPDAKNMVLTAYRGFSPEMADIAQRFFDQSWIDAPVRPGKAPGAFSHPTTPSAHPYVLMNYQGKPRDVMTLAHELGHGVHQVLAARQGALMAPTPLTLAETASVFGEMLTFKRLLSETRDAKQRQALLAGKVEDMINTVVRQIAFYSFERAVHTERKNGELTAERLGQIWLSVQTESLGEAIEIKPGYENFWMYIPHFIHSPFYVYAYAFGDCLVNSLYAVYEHAAEGFAERYLAMLAAGGTKHYSELLAPFGLDAKDPKFWDGGLSVIAGMIDELERMGEGHHHHHH,soluble
19,MSLRISILQNNNKEVEAVKSEYESKLSKIQNDLDQQTIYANTAQNNYEQELQKHADVSKTISELREQLHTYKGQVKTLNLSRDQLENALKENEKSWSSQKESLLEQLDLSNSRIEDLSSQNKLLYDQIQIYTAADKEVNNSTNGPGLNNILITLRRERDILDTKVTVAERDAKMLRQKISLMDVELQDARTKLDNSRVEKENHSSIIQQHDDIMEKLNQLNLLRESNITLRNELENNNNKKKELQSELDKLKQNVAPIESELTALKYSMQEKEQELKLAKEEVHRWKKRSQDILEKHEQLSSSDYEKLESEIENLKEELENKERQGAEAEEKFNRLRRQAQERLKTSKLSQDSLTEQVNSLRDAKNVLENSLSEANARIEELQNAKVAQGNNQLEAIRKLQEDAEKASRELQAKLEESTTSYESTINGLNEEITTLKEEIEKQRQIQQQLQATSANEQNDLSNIVESMKKSFEEDKIKFIKEKTQEVNEKILEAQERLNQPSNINMEEIKKKWESEHEQEVSQKIREAEEALKKRIRLPTEEKINKIIERKKEELEKEFEEKVEERIKSMEQSGEIDVVLRKQLEAKVQEKQKELENEYNKKLQEELKDVPHSSHISDDERDKLRAEIESRLREEFNNELQAIKKKSFDEGKQQAMMKTTLLERKLAKMESQLSETKQSAESPPKSVNNVQNPLLGLPRKIEENSNSPFNPLLSGEKLLKLNSKSSSGGFNPFTSPSPNKHLQNDNDKRESLANKTDPPTHLEPSFNIPASRGLISSSSTLSTDTNDEELTSNNPAQKDSSNRNVQSEEDTEKKKEGEPVKRGEAIEEQTKSNKRPIDEVGELKNDEDDTTENINESKKIKTEDEEEKETDKVNDENSIEGHHHHHH,soluble
20,MGSDKIHHHHHHMLPGSRSLSKELGINRKTVQAVYEELEAQGWLVTRPRKGTFVADVLPEKKPHIEPRADRKVSNKPIIQQVAQRPHNDGVPDPRLIPYELFSRAYRHALIKITQNQYMGYGDPRGMAELRQALKQMLSMERFMNVAEDEICVVRGSQMGIFLASRALPNRQGVIVVEELYYPSAVKAFQSNGFQVVSVKLDDQGIVIEDLERILKEHSVAAIYTTPHHQYPTTVTMTMSRRLQLLELSKKWGFYIIEDDYDHEFHYDSRPMPPLASLPHSELVIHVGSLSKVFAPGIRLGYIVAAPTIIQTITEDILLIDRQGNNITELALADLMQRGEIKRHIRKMKKIYQLRRDHALAEFQRVFAESIEIQPPAGGMALWVKFQKSFTQDQLIKLKELNIDTEQKFKQKECANHCIRFGFAALSEKEITSLIETLNEAL,not soluble
